The values that follow come from patent publication US11560546B2, “Methods for neural conversion of human embryonic stem cells” (MEMORIAL SLOAN KETTERING CANCER CENTER, priority 2009, dated 2023).

Entries after “also recorded” stand apart in the source; their conditions may differ.

Format in all cases: cell-based, human
The subject of one experiment is hESC. In words: Real-Time PCR of pluripotency and germ layer markers in treated hESC. Here is the method: Cells and Culture Conditions (dual SMAD and floor plate). hESCs (WA-09; passages 35-45) were cultured on mouse embryonic fibroblasts plated at 12-15,000 cells/cm2 (MEFs, Global Stem). A medium of DMEM/F12, 20% knockout serum replacement (GIBCO), 0.1 mM b-mercaptoethanol, 6 ng/mL FGF-2 was changed daily. Cells were passaged using 6 U/mL of dispase in hESCs media, washed and re-plated at a dilution of 1:5 to 1:10. Neural Induction (Dual SMAD). hESC cultures were disaggregated using accutase for 20 minutes, washed using hESC media and pre-plated on gelatin for 1 hour at 37° C. in the presence of ROCK inhibitor to remove MEFs. The nonadherent hESC were washed and plated on matrigel at a density of 10,000-25,000 cells/cm^2 on matrigel (BD) coated dishes in MEF conditioned hESC media (CM) spiked with 10 ng/mL of FGF-2 and ROCK-inhibitor. […] The ROCK inhibitor was withdrawn, and hESC were allowed to expand in CM for 3 days or until they were nearly confluent. The initial differentiation media conditions included knock out serum replacement (KSR) media with […] TGF-beta inhibitor (SB431542, Tocris) and 500 ng/mL of Noggin (R&D). Upon day 5 of differentiation, the TGF-b inhibitor was withdrawn and increasing amounts of N2 media (25%, 50%, 75%) was added to the KSR media every two days while maintaining 500 ng/mL of Noggin. For MS5 induction, established methods previously reported were used^18. Quantitative Real-Time (Dual SMAD). Total RNA was extracted using an RNeasy kit (Qiagen). For each sample, 1 ug of total RNA was treated for DNA contamination and reverse transcribed using the Quantitect RT kit (Qiagen). Amplified material was detected using Quantitect SYBR green probes and PCR kit (Qiagen) on a Mastercycler RealPlex2 (Eppendorf). Results were normalized to a HPRT control and are from 4-6 technical replicates of 2-3 independent biological samples at each data point. Neuronal Patterning and Differentiation (Dual SMAD). Dopaminergic patterning was initiated using BDNF, ascorbic acid, sonic hedgehog, and FGF8 in N2 media as previously reported^18, and maturation was performed in the presence of BDNF, ascorbic acid, GDNF, TGFb-1, and cyclic-AMP. Motor neuron patterning was performed using BDNF, ascorbic acid, sonic hedgehog, and retinoic acid in N2 media as previously reported^16. Microscopy, Antibodies, and Flow Cytometry (Dual SMAD). Tissue was fixed using 4% paraformaldehyde for 20 minutes, washed with PBS, permeablized using 0.5% Triton X in PBS, and blocked using 1% BSA in PBS. Primary antibodies used for microscopy included PAX6 (Covance), Oct4 (Biovision), AP2 (Novus Biologicals), GBX2 (Sigma), HNK1 (Sigma), HOXB4 (Developmental Studies Hybridoma Bank (DSHB)), Nestin (R&D), NKX6.1 (DSHB), OTX2 (gift), p75 (Advanced Target Systems.), PAX7 (DSHB), PLZF (Calbiochem), TUJ1 (Covance), ZO1 (Zymed), BF1 (FOXG1, gift Esseng Lai), TH (Sigma), HB9 (DSHB), ISL1 (DSHB). CD105-PE (eBioscience) was used for excluding MS5 stromal cells for flow cytometery on a FACS can (BD). Floor Plate: Neural Induction.

Experiment [1] deals with hESCs. In words: Floor plate induction in NSB protocol, FOXA2 immunostaining. To be noted: added early along FP differentiation; BIO 100 nM. As to the method:
(§1) For MS5 induction, established methods previously reported were used (Perrier et al., 2004). Feeder free neural induction was carried out as previously described (Chambers et al., 2009). Briefly, hESCs cultures were disaggregated using accutase for 20 minutes, washed using hESCs media and pre-plated on gelatin for 1 hour at 37° C. in the presence of ROCK inhibitor to remove MEFs. The nonadherent hESCs were washed and plated on matrigel at a density of 20,000 cells/cm2 on matrigel (BD) coated dishes in MEF conditioned hESCs media (CM) spiked with 10 ng/mL of FGF-2 and ROCK-inhibitor. The ROCK inhibitor was withdrawn, and hESCs were allowed to expand in CM for 3 days or until they were nearly confluent. The initial differentiation media conditions included knock out serum replacement (KSR) media with […] TGF-b inhibitor (SB431542, Tocris) and 500 ng/mL of Noggin (R&D). Upon day 5 of differentiation, increasing amounts of N2 media (25%, 50%, 75%) was added to the KSR media every two days while maintaining 500 ng/mL of Noggin and TGF-b inhibitor. For FP induction, Sonic C25II was added at 200 ng/ml.
Tissue was fixed using 4% paraformaldehyde and Picric acid for 15 minutes, washed with PBS, permeablized using 0.3% Triton X in PBS, and blocked using 10% Donkey Serum. Primary antibodies used for microscopy included PAX6 (Covance), TUJ1 (Covance), ZO1 (Zymed), BF1 (FOXG1, gift E.Lai), TH (Pelfreez), NKX6.1 (DSHB) and FOXA2 (SantaCruz).
Using this protocol, in combination with compositions and methods of the present inventions, the inventors aimed to optimize FP differentiation by adding Sonic C25II at different time points during neural induction and assaying for FOXA2 expression. Differentiation was initiated upon NSB exposure, and Sonic C25II was added at Day 1, Day 3, Day 5, or Day 7 (FIG. 2A).

In experiment [2] the test system is rosette-stage neural cells. Description: Floor plate induction in stromal-feeder (MS5) derived / rosette-stage neural cells. To be noted: added to neural rosette stage cells. Here is the method: as §1
hESC derived neural cells at the rosette stage were differentiated into both CNS and PNS progeny and patterned towards multiple cells fates along the A/P and D/V axis (Elkabetz et al., 2008). […] Specification of progenitor cells into FP tissue and cells during mouse development was thought to depend on SHH signaling within early neural lineages. The inventors tested whether rosette-stage neural cells were competent to undergo FP specification in response to SHH. High concentrations of SHH were needed to induce FP during mouse development (Roelink et al., 1994; Ericson et al., 1996). Recombinant N-terminal SHH has a limited activity range due to the lack of posttranslational modifications required for full SHH action. Recently, a modified version of recombinant SHH became available where SHH was tethered to two Isoleucines (Sonic C25II, R&D Systems), mimicking more closely the potency of mammalian SHH protein.
The majority of cells retained rosette cytoarchitecture and staining for the AN marker BF1 as described previously (FIG. 1A) (Elkabetz et al., 2008).
Based on the hypothesis that FP specification in the mouse occurs at early developmental stages, at the time of or prior to neural induction, the inventors repeated SHH induction studies at Day 9, the time of rosette specification, using classic stromal-feeder mediated neural induction protocols (Elkabetz et al., 2008). Under this paradigm the inventors noticed a drastic change in cell morphology restricted to the cells treated with SHH-C25II (FIG. 1B).

For a further experiment, the system named is hESCs derived FP. In words: SHH enhancer (SBE1/SBE2) LacZ constructs in hESC derived FP. An excerpt:
As mentioned above, studies had identified different enhancers that directed SHH expression to different A/P region along ventral axis (Jeong et al., 2008). […] In the absence of caudalizing factors (SHH C25II alone), LacZ expression was observed herein following transfection with the SBE2 but not the SBE1 enhancer supporting the hypothesis that hESC derived FP is anterior by default (FIG. 6C). In contrast SBE2 activity was abolished upon treatment with Wnt1 or FGF8 while SBE1 activity was induced under these conditions.

The test system of experiment [3] is hESCs. In words: qRT-PCR of FP, AN and regional markers during FP induction. Here is the method:
as §1
Total RNA was extracted using an RNeasy kit (Qiagen). For each sample, 1 ug of total RNA was treated for DNA contamination and reverse transcribed using the Superscript III (Invitrogen). Amplified material was detected using Taqman probes and PCR mix (ABI) on a Mastercycler RealPlex2 (Eppendorf). All results were normalized to a HPRT control and are from 3 technical replicates of 3 independent biological samples at each data point.
FOXA2 is a key marker of FP development. However, FOXA2 is also highly expressed in the endoderm. To further characterize the hESC derived putative FP tissue, the inventors performed qRT-PCR analyses for candidate markers at Day 11. […] The inventors further characterized the nature of FOXA2+ putative FP cells using a panel of neural precursor, glial, neuronal and non-neural markers (FIG. 7). […] To distinguish FOXA2 expression in hESC derived FP versus endoderm tissue, the inventors differentiated hESCs to endoderm (D'Amour et al., 2005).
To gain further insight into the factors critical for human FP specification, high resolution temporal gene expression profiles of candidate markers were performed at 6 time points during the 11 day protocol.
The inventors contemplated the use of SIX6 as a putative marker of anterior FP identity. Thus SIX6 status of the hESC derived FP was used to mark respecification in response to known caudalizing agents such as FGF8, Wnt-1, and Retinoic Acid. Each of these caudalizing factors was added in combination with SHH and the resulting tissue was assessed for expression of the FP markers FOXA2 and NETRIN-1, the AN marker BF1, and putative anterior FP marker SIX6.
Background: Quantitative PCR measures a nucleic acid by following its amplification.

Setting [4] is: caudalizing factor added in combination with SHH.

Turning to `NC(=O)c1ccc(-c2nc(-c3ccc4c(c3)OCO4)c(-c3ccccn3)[nH]2)cc1` [SB431542, 4-[4-(1,3-benzodioxol-5-yl)-5-(2-pyridinyl)-1H-imidazol-2-yl]-benzamide], in the experiment with hESC, the “Brachyury expression (mesodermal lineage)” value is on record as “suppression of Brachyury” and the CDX2 expression entry is on record as “dramatic increase”. For the same molecule, the Nanog expression result with hESC (hESC in KSR) is “rapid loss of Nanog expression; also recorded: most dramatic downregulation”.

As to `O=C1Nc2cc(Br)ccc2/C1=C1/Nc2ccccc2/C1=N\O` [BIO, reference compound], the FOXA2 expression entry in the experiment on hESCs [1] is reported as “can increase FOXA2 expression”. The “FP competency of neural rosette stage cells” value (from here on “FP competency”) in experiment [2] was “not sufficient to induced FP competency”.

Consider Noggin, for which, in the experiment on hESC, the CDX2 expression entry was “Suppression of CDX2” and the “SOX17 expression (endodermal lineage)” value is “suppression of SOX17”.

B1: Wnt-1: caudalizing factor (Peprotech 50 ng/ml) (protein, UniProt P04628 28-370, looked up)
Proto-oncogene Wnt-1: ANSSGRWWGIVNVASSTNLLTDSKSLQLVLEPSLQLLSRKQRRLIRQNPGILHSVSGGLQSAVRECKWQFRNRRWNCPTAPGPHLFGKIVNRGCRETAFIFAITSAGVTHSVARSCSEGSIESCTCDYRRRGPGGPDWHWGGCSDNIDFGRLFGREFVDSGEKGRDLRFLMNLHNNEAGRTTVFSEMRQECKCHGMSGSCTVRTCWMRLPTLRAVGDVLRDRFDGASRVLYGNRGSNRASRAELLRLEPEDPAHKPPSPHDLVYFEKSPNFCTYSGRLGTAGTAGRACNSSSPALDGCELLCCGRGHRTRTQRVTERCNCTFHWCCHVSCRNCTHTRVLHECL
Regarding B1, in the experiment with hESCs derived FP, the “SBE1 enhancer activity (LacZ)” value is on record as “induced” and the “SBE2 enhancer activity (LacZ)” value is listed as “abolished”. Further, the “FP production based on FOXA2 and Netrin-1 expression” value in the experiment on hESCs [3] (added in combination with SHH) is recorded as “significantly potentiated FP production”. In addition, in the experiment with hESCs [3] (setting [4]), the BF1 expression entry is recorded as “dramatic reduction in BF1 expression” and the SIX6 expression entry was “significant reduction in SIX6 expression”. In addition, the “midbrain FP markers CORIN and NOV and DA progenitor markers LMX1B, EN1, NGN2” value in the experiment on hESCs [3] (qPCR) was “significant increase”. For the same molecule, the “FP competency” value in experiment [2] was “not sufficient to induced FP competency”.

B2: Wnt3A: WNT protein added to neural rosette stage cells (protein, UniProt P56704 19-352, looked up)
Protein Wnt-3a: SYPIWWSLAVGPQYSSLGSQPILCASIPGLVPKQLRFCRNYVEIMPSVAEGIKIGIQECQHQFRGRRWNCTTVHDSLAIFGPVLDKATRESAFVHAIASAGVAFAVTRSCAEGTAAICGCSSRHQGSPGKGWKWGGCSEDIEFGGMVSREFADARENRPDARSAMNRHNNEAGRQAIASHMHLKCKCHGLSGSCEVKTCWWSQPDFRAIGDFLKDKYDSASEMVVEKHRESRGWVETLRPRYTYFKVPTERDLVYYEASPNFCEPNPETGSFGTRDRTCNVSSHGIDGCDLLCCGRGHNARAERRREKCRCVFHWCCYVSCQECTRVYDVHTCK
As to B2, the “FP competency” value in experiment [2] was “not sufficient to induced FP competency”.

B3: FGF8: caudalizing factor (R&D 50 ng/ml) (protein, UniProt P55075 23-233, looked up)
Fibroblast growth factor 8: QEGPGRGPALGRELASLFRAGREPQGVSQQHVREQSLVTDQLSRRLIRTYQLYSRTSGKHVQVLANKRINAMAEDGDPFAKLIVETDTFGSRVRVRGAETGLYICMNKKGKLIAKSNGKGKDCVFTEIVLENNYTALQNAKYEGWYMAFTRKGRPRKGSKTRQHQREVHFMKRLPRGHHTTEQSLRFEFLNYPPFTRSLRGSQRTWAPEPR
Turning to B3, in the experiment on hESCs derived FP, the “SBE1 enhancer activity (LacZ)” value is given as “induced” and the “SBE2 enhancer activity (LacZ)” value is listed as “abolished”. Further, the SIX6 expression result in the experiment on hESCs [3] (setting [4]) is “significant reduction in SIX6 expression”.
